Results as given in patent publication US20040219635A1 (Dana-Farber, published 2004).
Substitutions are numbered along the chain they refer to. Ends that are not written are not given here.

Experiments:
[1] = molecular target: T1, HA-pVHL (UniProt P40337 1-213); experiment: peptide elution of HIF from anti-HA immunoprecipitates of HA-pVHL (ts20 cells); failure to displace
T1 construct: In the cells it sits in complexes; also called 35S-HA-pVHL; 35S-labeled pVHL

[2] = molecular target: T1, HA-pVHL; experiment: peptide binding assay; unpublished data (16)
[3] = molecular target: T2, pVHL (form used not given) (UniProt P40337 1-213); experiment: binding to GST-ODD after phosphatase treatment; unpublished data (16)
T2 construct: also called wild-type pVHL

[4] = molecular target: T3, immobilized GST-pVHL, elongin B, elongin C complexes (UniProt P40337 54-213; Q15370 1-118; Q15369 17-112); experiment: capture of 35S-labeled protein on immobilized GST-VBC
T3 construct: also called GST-VBC; GST-VHL, elongin B, elongin C complexes

T1 sequence (P40337 whole entry): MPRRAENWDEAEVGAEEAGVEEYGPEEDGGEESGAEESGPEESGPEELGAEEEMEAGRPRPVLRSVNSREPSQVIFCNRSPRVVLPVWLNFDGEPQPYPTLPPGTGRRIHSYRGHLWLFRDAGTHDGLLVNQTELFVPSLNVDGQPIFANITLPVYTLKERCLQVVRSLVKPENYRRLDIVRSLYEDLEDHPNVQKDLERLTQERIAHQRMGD
T2 sequence (P40337 whole entry): as above

B1: biotinylated HIF1α(556-575) Pro564Ala peptide (peptide, UniProt Q16665 556-575, looked up)
peptide: DLDLEMLAAYIPMDDDFQLR
modifications: also: biotinylated (site not given here)
B1: no binding (tested: 7 µg of peptide in 65 µl of PBS) [1].

B2: biotinylated HIF (556-575) peptide with Met561 and Met568 replaced with alanine (peptide, UniProt Q16665 556-575, looked up)
peptide: DLDLEALAPYIPADDDFQLR
modifications: also: biotinylated (site not given here)
notes: Made for the mass spectrometry experiments
B2: binds [2].

B3: GST-HIF1α(530-652) produced in E. coli and preincubated with rabbit reticulocyte lysate (other, UniProt Q16665 530-652, looked up)
chain: EFKLELVEKLFAEDTEAKNPFSTQDTDLDLEMLAPYIPMDDDFQLRSFDQLSPLESSSASPESASPQSTVTVFQQTQIQEPTANATTTTATTDELKTVTKDRMEDIKILIASPSPTHIHKETT
modifications: modified by a factor in reticulocyte lysate; later examples identify the modification as hydroxylation of Pro 564
notes: range 530-652; Incubated with rabbit reticulocyte lysate for 90 min at 30° C; also called GST-ODD; not shown: glutathione S-transferase (GST) fusion partner
B3: binds [3].

B4: Pro564Ala Gal4-HA-HIF1α(530-652) (other)
chain: B3 chain with P35A
notes: range 530-652; also called Gal4-ODD Pro564Ala; not shown: Gal4 portion
B4: no binding [4].

B5: Leu562Ala Gal4-HA-HIF1α(530-652) (other)
chain: B3 chain with L33A
notes: range 530-652; also called Gal4-ODD Leu562Ala; not shown: Gal4 portion
B5: no binding [4].
